B1: CD8SP-FMC63-vL-EAAAK-[hTCRb-KACIAH]-F-P2A-SP-FMC63-vH-EAAAK-v2-[hTCRa-CSDVP]-F-F2A-PAC (other)
TCR beta: DIQMTQTTSSLSASLGDRVTISCRASQDISKYLNWYQQKPDGTVKLLIYHTSRLHSGVPSRFSGSGSGTDYSLTISNLEQEDIATYFCQQGNTLPYTFGGGTKLEITEAAAKEDLKNVFPPEVAVFEPSKAEIAHTQKATLVCLATGFYPDHVELSWWVNGKEVHSGVCTDPQPLKEQPALNDSRYCLSSRLRVSATFWQNPRNHFRCQVQFYGLSENDEWTQDRAKPVTQIVSAEAWGRADCGITSASYHQGVLSATILYEILLGKATLYAVLVSALVLMAMVKRKDSRG
TCR alpha: EVKLQESGPGLVAPSQSLSVTCTVSGVSLPDYGVSWIRQPPRKGLEWLGVIWGSETTYYNSALKSRLTIIKDNSKSQVFLKMNSLQTDDTAIYYCAKHYYYGGSYAMDYWGQGTSVTVSSEAAAKIQNPDPAVYQLRDSKSSDKSVCLFTDFDSQTNVSQSKDSDVYITDKCVLDMRSMDFKSNSAVAWSNKSDFACANAFNNSIIPEDTFFPSSDVPCDVKLVEKSFETDTNLNFQNLSVIGFRILLLKVAGFNLLMTLRLWSS
notes: Polyprotein PRT 12435; also called 040617-C09
B2: CD8SP-CD19-hu-mROO5-vL-[hTCRb-KACIAH]-F-P2A-SP-CD19-hu-mROO5-vH-[hTCRa-CSDVP]-F-F2A-PAC (other)
TCR beta: DIQMTQSPSSLSASVGDRVTITCKASDHINNWLAWYQQKPGQAPKLLIYGATTLETGVPSRFSGSGSGTDYTLTISSLQPEDFATYYCQQSWNTPWTFGQGTKLEIKREDLKNVFPPEVAVFEPSKAEIAHTQKATLVCLATGFYPDHVELSWWVNGKEVHSGVCTDPQPLKEQPALNDSRYCLSSRLRVSATFWQNPRNHFRCQVQFYGLSENDEWTQDRAKPVTQIVSAEAWGRADCGITSASYHQGVLSATILYEILLGKATLYAVLVSALVLMAMVKRKDSRG
TCR alpha: QVQLQQPGAELVKPGASVKMSCKASGYAFSSYWINWMKQKPGQGLEWIGQIYPGDGDTNYNGKFKGRATLTADTSSSTAYMQLSSLTSEDSAVYFCARSITTVVGCAMDYWGQGTSVTVSSIQNPDPAVYQLRDSKSSDKSVCLFTDFDSQTNVSQSKDSDVYITDKCVLDMRSMDFKSNSAVAWSNKSDFACANAFNNSIIPEDTFFPSSDVPCDVKLVEKSFETDTNLNFQNLSVIGFRILLLKVAGFNLLMTLRLWSS
B3: CD8SP-CD19-hu-mROO5-vL-[hTCRa-CSDVP]-F-F2A-SP-CD19-hu-mROO5-vH-[hTCRb-KACIAH]-F-P2A-PAC (other)
TCR alpha: DIQMTQSPSSLSASVGDRVTITCKASDHINNWLAWYQQKPGQAPKLLIYGATTLETGVPSRFSGSGSGTDYTLTISSLQPEDFATYYCQQSWNTPWTFGQGTKLEIKRIQNPDPAVYQLRDSKSSDKSVCLFTDFDSQTNVSQSKDSDVYITDKCVLDMRSMDFKSNSAVAWSNKSDFACANAFNNSIIPEDTFFPSSDVPCDVKLVEKSFETDTNLNFQNLSVIGFRILLLKVAGFNLLMTLRLWSS
TCR beta: QVQLQQPGAELVKPGASVKMSCKASGYAFSSYWINWMKQKPGQGLEWIGQIYPGDGDTNYNGKFKGRATLTADTSSSTAYMQLSSLTSEDSAVYFCARSITTVVGCAMDYWGQGTSVTVSSEDLKNVFPPEVAVFEPSKAEIAHTQKATLVCLATGFYPDHVELSWWVNGKEVHSGVCTDPQPLKEQPALNDSRYCLSSRLRVSATFWQNPRNHFRCQVQFYGLSENDEWTQDRAKPVTQIVSAEAWGRADCGITSASYHQGVLSATILYEILLGKATLYAVLVSALVLMAMVKRKDSRG
B4: CD8SP-CD19Bu12-vL-V5-[hTCRb-WT]-F-P2A-CD19Bu12-vH-Myc-[hTCRa-WT]-F-F2A-PAC (other)
TCR beta: EIVLTQSPATLSLSPGERATLSCSASSSVSYMHWYQQKPGQAPRLLIYDTSKLASGIPARFSGSGSGTDFTLTISSLEPEDVAVYYCFQGSVYPFTFGQGTKLEIKRGKPIPNPLLGLDSTGSGEDLKNVFPPEVAVFEPSEAEISHTQKATLVCLATGFYPDHVELSWWVNGKEVHSGVSTDPQPLKEQPALNDSRYCLSSRLRVSATFWQNPRNHFRCQVQFYGLSENDEWTQDRAKPVTQIVSAEAWGRADCGFTSESYQQGVLSATILYEILLGKATLYAVLVSALVLMAMVKRKDSRG
TCR alpha: QVQLQESGPGLVKPSQTLSLTCTVSGGSISTSGMGVGWIRQHPGKGLEWIGHIWWDDDKRYNPALKSRVTISVDTSKNQFSLKLSSVTAADTAVYYCARMELWSYYFDYWGQGTLVTVSSEQKLISEEDGSGIQNPDPAVYQLRDSKSSDKSVCLFTDFDSQTNVSQSKDSDVYITDKTVLDMRSMDFKSNSAVAWSNKSDFACANAFNNSIIPEDTFFPSPESSCDVKLVEKSFETDTNLNFQNLSVIGFRILLLKVAGFNLLMTLRLWSS

How the values were obtained:
CD19-ECD-GGSG-NLuc-AcV5 = target: T1, CD19-ECD-GGSG-NLuc-AcV5 (human); experiment: NLuc binding assay, SIR on Jurkat-NFAT-GFP cells
T1 construct: also called CD19-GGSG-NLuc-AcV5; Flag-CD19-GGSG-NLuc-AcV5
T1 chain: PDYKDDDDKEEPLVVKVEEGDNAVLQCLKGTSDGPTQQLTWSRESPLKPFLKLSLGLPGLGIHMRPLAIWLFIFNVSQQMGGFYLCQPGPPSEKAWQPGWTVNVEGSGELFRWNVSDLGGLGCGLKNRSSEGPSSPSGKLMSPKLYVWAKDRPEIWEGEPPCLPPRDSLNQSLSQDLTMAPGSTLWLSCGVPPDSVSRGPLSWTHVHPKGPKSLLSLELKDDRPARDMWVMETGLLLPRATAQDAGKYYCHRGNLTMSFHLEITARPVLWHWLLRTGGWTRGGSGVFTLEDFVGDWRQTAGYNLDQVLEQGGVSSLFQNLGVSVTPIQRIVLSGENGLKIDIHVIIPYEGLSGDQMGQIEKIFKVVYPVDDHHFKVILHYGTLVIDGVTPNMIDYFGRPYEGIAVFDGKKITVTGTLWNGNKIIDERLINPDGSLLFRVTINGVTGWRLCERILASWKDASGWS

human CD19 = target: T2, human CD19 (human, UniProt P15391 20-556); experiment: cell-based or functional assay
T2 sequence (looked up): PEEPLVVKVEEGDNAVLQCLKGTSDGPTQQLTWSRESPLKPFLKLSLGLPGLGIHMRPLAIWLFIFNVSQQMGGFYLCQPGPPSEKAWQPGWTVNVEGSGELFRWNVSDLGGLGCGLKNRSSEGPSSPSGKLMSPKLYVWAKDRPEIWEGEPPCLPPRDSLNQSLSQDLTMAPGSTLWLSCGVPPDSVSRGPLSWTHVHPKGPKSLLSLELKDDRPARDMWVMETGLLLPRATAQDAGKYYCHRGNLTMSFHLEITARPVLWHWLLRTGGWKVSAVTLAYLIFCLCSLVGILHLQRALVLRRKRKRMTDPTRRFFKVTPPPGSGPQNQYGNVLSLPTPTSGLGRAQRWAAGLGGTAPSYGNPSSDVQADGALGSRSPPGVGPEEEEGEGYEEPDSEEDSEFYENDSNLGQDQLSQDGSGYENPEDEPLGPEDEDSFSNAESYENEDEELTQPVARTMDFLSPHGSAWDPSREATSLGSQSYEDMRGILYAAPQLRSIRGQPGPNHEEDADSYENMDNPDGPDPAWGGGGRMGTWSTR

Binder | CD19-GGSG-NLuc (RLU) (CD19-ECD-GGSG-NLuc-AcV5) | NFAT-GFP (%) after overnight co-culture with RAJI cells (human CD19) [%]
B1 | 68500 | –
B2 | – | 71.8
B3 | – | 52.4
B4 | – | 4.49

— US20260167693A1 (ANGELES THERAPEUTICS, published 2026)
